In patent publication EP0531080A2, “Peptide inhibitors of human papilloma virus protein binding to retinoblastoma gene protein” (MERCK & CO. INC., priority 1991, dated 1993):
Where a SMILES comes first, the peptide text is derived from it. Where no end group is shown, it is not given here. [ ]: non-standard residue; d: D form. NMeY = CN[C@@H](Cc1ccc(O)cc1)C(=O)O; NMeL = CN[C@@H](CC(C)C)C(=O)O

Experiments:
[1] = biological target: T1, RBG Protein/E7 (complex formation between E7 protein and p105-RB) (Homo sapiens, UniProt P06400); experiment: E7/RB solution assay (immunoprecipitation, T24 cell lysates as source of RBG protein); assay type: binding; conditions: average of at least two experiments, triplicate; read-out: SOLUTION ASSAY RBG Protein/E7 IC₅₀
T1 construct: Cell lysates used as source of RBG protein were prepared from human T24 bladder carcinoma cells; endogenous in cells; host or cells: human T24 bladder carcinoma cells (whole cell lysate)
T1 sequence (P06400 1-928): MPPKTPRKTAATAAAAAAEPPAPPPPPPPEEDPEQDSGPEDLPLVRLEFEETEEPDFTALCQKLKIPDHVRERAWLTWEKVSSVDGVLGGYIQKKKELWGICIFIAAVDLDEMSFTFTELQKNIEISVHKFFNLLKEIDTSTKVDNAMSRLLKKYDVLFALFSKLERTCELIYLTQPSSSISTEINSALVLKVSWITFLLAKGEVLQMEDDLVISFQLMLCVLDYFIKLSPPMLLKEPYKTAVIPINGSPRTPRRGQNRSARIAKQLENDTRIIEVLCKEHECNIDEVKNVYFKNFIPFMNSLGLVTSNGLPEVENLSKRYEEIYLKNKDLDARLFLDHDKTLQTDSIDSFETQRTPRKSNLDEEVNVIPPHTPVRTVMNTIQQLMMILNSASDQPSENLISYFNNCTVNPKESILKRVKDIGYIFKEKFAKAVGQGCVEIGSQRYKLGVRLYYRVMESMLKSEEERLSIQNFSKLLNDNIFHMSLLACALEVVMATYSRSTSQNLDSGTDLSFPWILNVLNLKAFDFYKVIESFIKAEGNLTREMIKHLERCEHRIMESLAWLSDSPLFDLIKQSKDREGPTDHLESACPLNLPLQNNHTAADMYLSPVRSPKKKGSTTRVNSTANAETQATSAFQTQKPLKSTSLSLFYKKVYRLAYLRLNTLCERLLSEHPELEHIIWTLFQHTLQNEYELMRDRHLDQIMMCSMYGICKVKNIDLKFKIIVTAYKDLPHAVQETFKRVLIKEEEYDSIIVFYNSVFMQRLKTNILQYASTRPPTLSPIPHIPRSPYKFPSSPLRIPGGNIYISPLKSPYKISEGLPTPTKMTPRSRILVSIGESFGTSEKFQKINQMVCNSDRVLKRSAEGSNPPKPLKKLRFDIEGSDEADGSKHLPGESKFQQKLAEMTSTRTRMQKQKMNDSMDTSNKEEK
Experimental: (§1) An in vitro solution assay used for the detection of complex formation between E7 protein and p105-RB has been described by Dyson, et. al. (30). Cell lysates used as source of RBG protein were prepared from human T24 bladder carcinoma cells as described (30). C36 and the control antibody Pb416 are monoclonal antibodies directed against RGB protein and SV40 large T protein, respectively. These antibodies were a generous gift from E. Harlow (Cold Spring Harbor Laboratories, Cold Spring Harbor, NY). Immunoprecipitates of E7/RGB protein binding reactions containing serially diluted peptide antagonists were dissolved in 35 µl gel loasing buffer (30). Five µl was counted directly in Right Safe (Beckan, Palo Alto, CA.) scintillation cocktail and 25 µl was subjected to sodium dodecyl sulphate poly-acrylamide gel electrophoresis. Gels were dried and exposed to Kodak X-AR film at -70°C overnight. In order to more rapidly assay large numbers of samples and more easily quantitate the binding results, we developed a plate binding asszy for the detection of E7/RGB protein association. Purified recombinant E7 was resuspended in 0.1 M sodium carbonate, pH 9.5, at 1 ng/µl. Fifty microliters of this solution was placed inot each well of a polyvinyl chloride micortiter plate (COSTAR 2596, Cambridge, MA.). The plate was gently agitated for 18 hours at 4°C. The E7 solution was aspirated off and 100 µl of plate blocking buffer (PBB) [50mM Hepes 7.0, 250mM sodium chloride, 0.1% NP40, 0.5% (w/v) pigskin gelatin, and 0.02% sodium azide] was added pwe well. The buffer was removed and the plate was washed three times in the above buffer without the gelatin (PB). five femtomoles of ³⁵S-methionine (Amersham 100 Ci/mmole, Arlington Heights, IL.) labeled RBG protein prepared in a rabbit reticulocyte lysate was diluted in PB buffer containing various peptide antagonists to a final volume of 50 µl and added to the E7 treated plate. The plate was agsin incubated at 4°C with agitation for 1 hour after which the solution was aspirated and each well washed five times with PB. The top of the plate was removed using a hot wire cutting apparatus (D. Lee, Sunnyvale, CA). Each well eas placed in 3 ml of Ready Safe scintillation cocktail (Beckman, Palo Alto, CA.) and counted for one minute. • 30. Dyson, N. Duffy, L.A., and Harlow, E. (1989) Cancer Cells 7, 235-240 • 31. Merrifield, R.B. (1963) J. Am. Chem. Soc. 85, 2149-2154 • 32. Sakakibara, S., Shimonishi, Y., Kishida, Y., Okada, M., and Sugihara, H. (1967) Bull. Chem. Soc. Japan 40, 2164-2167 • 33. Rivier, J., McClentock, R., and Anderson, H. (1984) J. Chromatogr. 288, 303-328
(§2) IC ₅₀ values represent the average of at least two experiments in which each concentration of inhibitor was tested in triplicate. The varition between experiments was less than 10%. The 50% inhibition concentration are micromolar. ND = not determined. [formula] [formula] [formula] [formula]

[2] = biological target: T2, RBG Protein/E7 (Homo sapiens, UniProt P06400); experiment: E7/RB plate binding assay (recombinant E7 on plate, 35S-labeled RBG protein); conditions: average of at least two experiments, triplicate; read-out: PLATE ASSAY RBG Protein/E7 IC₅₀
T2 construct: made in house; host or cells: rabbit reticulocyte lysate (in vitro translation of RB)
T2 sequence (P06400 1-928): T1 sequence (P06400 1-928)
Experimental: as §1, §2

[3] = biological target: T3, HPV-16 E7 protein binding to the RBG protein (Homo sapiens, UniProt P06400); experiment: HPV-16 E7 protein binding assay described by R.E. Jones et al.; conditions: lowest concentration stated to inhibit
T3 sequence (P06400 1-928): T1 sequence (P06400 1-928)
Experimental: Peptides D and E were examined in the HPV-16 E7 protein binding assay described by R.E. Jones et al., The Journal of Biological Chemistry, Vol 265:12782-12785, 1990. This assay measures the binding of the E7 protein to the RBG protein. Peptides D and E inhibited HPV-16 E7 protein binding to the RBG protein at concentrations of Peptide D as low as 20nM and at concentrations of Peptide E as low as 2nM. […] Additionally, Peptide D and Peptide E are themselves antagonists of the HPV E7 protein binding to the RBG protein.

[4] = biological target: T3, HPV-16 E7 protein binding to the RBG protein; experiment: Binding inhibition assay by immune precipitation (Example 2; Hela cell lysate plus radiolabeled E7 from rabbit reticulocyte lysate); parameters: Whole cell lysates of Hela cells were used as a source of human RBG protein; endogenous in cells; host or cells: HeLa whole cell lysate (RB); rabbit reticulocyte lysate, T7 promoter clone (E7)
Experimental: Peptide A, Peptide B, and Acetyl-GRP 20-27 were assayed for their abilities to inhibit the binding of the HPV-16 E7 protein to the RBG protein. Binding inhibition assays were carried out in vitro using a modification of the procedure described by N. Dyson et al., Science 243: 934-936 1989. Whole cell lysates of Hela cells were used as a source of human RBG protein. Rabbit reticulocyte cell free lysates that permit transcription and translation of exogenously added DNAs served as a source of HPV-16 E7 protein. The HPV-16 E7 gene was added to the rabbit reticulocyte lysate as a recombinant DNA clone under the control of a T7 promoter and incubated for 60 minutes at 30°C in the presence of radiolabeled methionine to allow transcription of the HPV-16 E7 gene and translation into E7 protein that contained radiolabeled methionine. The Hela cell and rabbit reticulocyte lysates were then mixed and incubated at 4°C for 90 minutes. After further manipulations a murine antibody against the RBG protein was added and incubated at 4°C for 60 minutes. Next, a rabbit anti-mouse IgG antibody and protein A sepharose was added to the reaction mixture in order to immune precipitate the RBG protein. At the same time, the E7 protein that was bound to the RBG protein was also precipitated. […] This biochemical protocol yields a quantitative estimate of the binding of HPV-16 E7 protein to the RBG protein in vitro. […]

| Molecule | IC50 [1] | IC50 [2] | also measured |
| --- | --- | --- | --- |
| E7-(18-29)-AMIDE (ETTDLYCYEQLN-NH2; UniProt P03129 18-29, looked up, fragment) [Peptide 8] | 0.4 µM | 0.06 µM |  |
| [ABU²⁴]-E7-(20-32)-AMIDE [Peptide 17] | 20 µM |  |  |
| E7-(20-32)-AMIDE (TDLYCYEQLNDSS-NH2; UniProt P03129 20-32, looked up, fragment) [Peptide 1] | 1 µM | 0.05 µM |  |
| E7-(21)32)-AMIDE (DLYCYEQLNDSS-NH2; UniProt P03129 21-32, looked up, fragment) [Peptide 10] | 20 µM | 11.4 µM |  |
| TDLFCYEQLN-NH2 [Peptide 19, [Phe²³]-E7-(20-29)-AMIDE] |  | 0.06 µM |  |
| Ac-DLYCYEQLN-NH2 [Peptide D] |  |  | inhibited HPV-16 E7 protein binding to the RBG protein at concentrations as low as [3]: 20 nM |
| [G1n27]]-E7-(20-27)-AMIDE (TDLYCYEQ-NH2; UniProt P03129 20-27, looked up, fragment) [Peptide 5] | 50 µM | 9.1 µM |  |
| E7-(14-29)-AMIDE (DLQPETTDLYCYEQLN-NH2; UniProt P03129 14-29, looked up, fragment) [Peptide 7] |  | 0.08 µM |  |
| Ac-LYCYEQLNDSS-NH2 [Peptide C] |  |  | inhibited HPV-16 E7 protein binding to the RBG protein at concentrations as low as ([4]; lowest concentration stated to inhibit): 1 µM |
| Acetyl-GRP 20-27: last eight amino acid residues of the human gastrin releasing peptide, unrelated to the HPV E7 protein |  |  | effect on HPV-16 E7 protein binding to the RBG protein ([4]; concentrations up to 60 uM): no effect |
| CC(=O)N[C@@H](CC(=O)O)C(=O)N(C)[C@@H](CC(C)C)C(=O)N[C@@H](Cc1ccc(O)cc1)C(=O)N[C@@H](CS)C(=O)N(C)[C@@H](Cc1ccc(O)cc1)C(=O)N[C@@H](CCC(=O)O)C(=O)N[C@@H](CCC(N)=O)C(=O)N(C)[C@@H](CC(C)C)C(=O)N[C@@H](CC(N)=O)C(N)=O [Peptide E] (Ac-D[NMeL]YC[NMeY]EQ[NMeL]N-NH2) |  |  | inhibited HPV-16 E7 protein binding to the RBG protein at concentrations as low as [3]: 2 nM |
| [ACM²⁴]-E7-(20-32)-AMIDE [Peptide 18] | > 100 µM |  |  |
| [Ser²⁴]-E7-(20-32)-AMIDE (TDLYSYEQLNDSS-NH2; UniProt P03129 20-32, looked up, variant C24S) [Peptide 16] | 40 µM |  |  |
